# ± gives the standard deviation of the averaged measurements.
# How the values were obtained:
# [1] = test system: VchCAST RNA-guided transposition machinery (E. coli BL21(DE3) host, lacZ target); assay: relative integration efficiency (T-RL orientation) vs wild-type transposon end (log2 (normalized fold change)); transposon end mutated: right end (5 bp flank + 75 bp right end); higher = more efficient transposition
# Summary of the method: (§1)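 Co-transformation of E. coli BL21(DE3) combined a pUC57 mini-transposon donor, holding barcoded pools of 1549 left-end or 1849 right-end variants, with a T7-driven plasmid encoding a CRISPR array, tniQ-cas8-cas7-cas6 and tnsA-tnsB-tnsC. After plating with 0.1 mM IPTG at 37°C for 18 h, input plasmids and genomic integration junctions were PCR-amplified and Illumina-sequenced across two biological output replicates, with four reference barcodes. Relative integration efficiency is the normalised, log-transformed output/input barcode fold change.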
# [2] = test system: VchCAST RNA-guided transposition machinery (E. coli BL21(DE3) host, lacZ target); assay: relative integration efficiency (T-LR orientation) vs wild-type transposon end (log2 (normalized fold change)); transposon end mutated: right end (5 bp flank + 75 bp right end); higher = more efficient transposition
# Summary of the method: as §1
Sequence,relative integration efficiency (log2) [1],relative integration efficiency (log2) [2]
ACATTTGTTGATACAACCATAAAATGATAATTACACCCATAAATTGATAATTATCACACCCATAAATTGATATTCTCTGATCATAGTCAGACCAACATTGCTACGACCCGTATTCGCACCGACACTG,-0.0876 ± 0.015,-0.29 ± 0.067
ACATTTGTTGATACAACCATAAAATGATAATTACACCCATAAATTGATAATTATCACACCCATAAATTGATATTGAAGAGGATCATAGTCAGACCAACATTGCTACGACCCGTATTCGCACCGACAC,-0.00509 ± 0.15,-0.000932 ± 0.33
ACATTTGTTGATACAACCATAAAATGATAATTACACCCATAAATTGATAATTATCACACCCATAAATTGATATTGAAGATGATCATAGTCAGACCAACATTGCTACGACCCGTATTCGCACCGACAC,0.3393 ± 0.002,0.0825 ± 0.095
ACATTTGTTGATACAACCATAAAATGATAATTACACCCATAAATTGATAATTATCACACCCATAAATTGATATTGCAGAGGATCATAGTCAGACCAACATTGCTACGACCCGTATTCGCACCGACAC,0.0202 ± 0.033,-0.044 ± 0.11
ACATTTGTTGATACAACCATAAAATGATAATTACACCCATAAATTGATAATTATCACACCCATAAATTGATATTGCAGCTGATCATAGTCAGACCAACATTGCTACGACCCGTATTCGCACCGACAC,0.131 ± 0.028,0.0166 ± 0.64
ACATTTGTTGATACAACCATAAAATGATAATTACACCCATAAATTGATAATTATCACACCCATAAATTGATATTGCCAACCATAAAATGATAATTACTCTGATCATAGTCAGACCAAGCACCGACAC,-1.11 ± 0.39,-0.138 ± 0.05
ACATTTGTTGATACAACCATAAAATGATAATTACACCCATAAATTGATAATTATCACACCCATAAATTGATATTGCCAGTGATCATAGTCAGACCAACATTGCTACGACCCGTATTCGCACCGACAC,-0.39 ± 0.14,-0.53 ± 0.12
ACATTTGTTGATACAACCATAAAATGATAATTACACCCATAAATTGATAATTATCACACCCATAAATTGATATTGCCCAACCATAAAATGATAATTATCTGATCATAGTCAGACCAAGCACCGACAC,-0.0286 ± 0.28,-0.886 ± 0.6
ACATTTGTTGATACAACCATAAAATGATAATTACACCCATAAATTGATAATTATCACACCCATAAATTGATATTGCCGAGGATCATAGTCAGACCAACATTGCTACGACCCGTATTCGCACCGACAC,0.325 ± 0.077,0.294 ± 0.46
ACATTTGTTGATACAACCATAAAATGATAATTACACCCATAAATTGATAATTATCACACCCATAAATTGATATTGCCGATGATCATAGTCAGACCAACATTGCTACGACCCGTATTCGCACCGACAC,0.336 ± 0.0049,0.0792 ± 0.085
ACATTTGTTGATACAACCATAAAATGATAATTACACCCATAAATTGATAATTATCACACCCATAAATTGATATTGCCTAGGATCATAGTCAGACCAACATTGCTACGACCCGTATTCGCACCGACAC,0.0464 ± 0.076,0.23 ± 0.42
ACATTTGTTGATACAACCATAAAATGATAATTACACCCATAAATTGATAATTATCACACCCATAAATTGATATTGCCTCAACCATAAAATGATAATTACTGATCATAGTCAGACCAAGCACCGACAC,-0.275 ± 0.21,-1.08 ± 0.72
ACATTTGTTGATACAACCATAAAATGATAATTACACCCATAAATTGATAATTATCACACCCATAAATTGATATTGCCTCCAACCATAAAATGATAATTATGATCATAGTCAGACCAAGCACCGACAC,-0.0389 ± 0.26,-0.77 ± 0.082
ACATTTGTTGATACAACCATAAAATGATAATTACACCCATAAATTGATAATTATCACACCCATAAATTGATATTGCCTCTAAAGTGTACAACACTTGAGAAAGTTTACTACAGGTATGCACCGACAC,-0.293 ± 0.28,0.483 ± 0.017
ACATTTGTTGATACAACCATAAAATGATAATTACACCCATAAATTGATAATTATCACACCCATAAATTGATATTGCCTCTACATGAATTCAAAGTTATGTAATATAGTACTATGTACGCACCGACAC,-0.373 ± 0.31,0.172 ± 0.19
ACATTTGTTGATACAACCATAAAATGATAATTACACCCATAAATTGATAATTATCACACCCATAAATTGATATTGCCTCTAGCTTGATCTACATTGGATTGCCATTCTCTCACAGTAGCACCGACAC,0.0681 ± 0.22,0.213 ± 0.1
ACATTTGTTGATACAACCATAAAATGATAATTACACCCATAAATTGATAATTATCACACCCATAAATTGATATTGCCTCTATGTACACTGATGAGTTATTACACCTCAAGTTCAATGGCACCGACAC,-0.228 ± 0.28,-0.281 ± 0.31
ACATTTGTTGATACAACCATAAAATGATAATTACACCCATAAATTGATAATTATCACACCCATAAATTGATATTGCCTCTCAACCATAAAATGATAATTAGATCATAGTCAGACCAAGCACCGACAC,-0.0518 ± 0.26,0.308 ± 0.018
ACATTTGTTGATACAACCATAAAATGATAATTACACCCATAAATTGATAATTATCACACCCATAAATTGATATTGCCTCTCAGACCACATAGCTGCCATGTCCTGATCGGACGGACCGCACCGACAC,0.787 ± 0.22,0.624 ± 0.19
ACATTTGTTGATACAACCATAAAATGATAATTACACCCATAAATTGATAATTATCACACCCATAAATTGATATTGCCTCTCCGACCCGGAAGAGGGCGCCTAGAATTGGGAGTGGTCGCACCGACAC,0.139 ± 0.13,0.134 ± 0.075
ACATTTGTTGATACAACCATAAAATGATAATTACACCCATAAATTGATAATTATCACACCCATAAATTGATATTGCCTCTCGCGAGAGGCCGGCAGCCGTCTGGCGTCGGGTGGCGGGCACCGACAC,0.713 ± 0.16,0.646 ± 0.53
ACATTTGTTGATACAACCATAAAATGATAATTACACCCATAAATTGATAATTATCACACCCATAAATTGATATTGCCTCTGACAACCATAAAATGATAATTATCATAGTCAGACCAAGCACCGACAC,-0.213 ± 0.28,-0.0996 ± 0.32
ACATTTGTTGATACAACCATAAAATGATAATTACACCCATAAATTGATAATTATCACACCCATAAATTGATATTGCCTCTGACTTAAACAAAATATATCTTGCCCGCCTTACAAATAGCACCGACAC,0.417 ± 0.32,0.774 ± 0.22
ACATTTGTTGATACAACCATAAAATGATAATTACACCCATAAATTGATAATTATCACACCCATAAATTGATATTGCCTCTGATAACTTCGTATAAAGTATCCTATACGAAGTTATTCGCACCGACAC,-0.255 ± 0.26,0.85 ± 0.066
ACATTTGTTGATACAACCATAAAATGATAATTACACCCATAAATTGATAATTATCACACCCATAAATTGATATTGCCTCTGATAACTTCGTATAAGGTATACTATACGAAGTTATTCGCACCGACAC,-0.433 ± 0.28,1.55 ± 0.38
ACATTTGTTGATACAACCATAAAATGATAATTACACCCATAAATTGATAATTATCACACCCATAAATTGATATTGCCTCTGATAACTTCGTATAATGTATACTATACGAAGTTATTCGCACCGACAC,-1.3 ± 0.39,1.63 ± 0.07
ACATTTGTTGATACAACCATAAAATGATAATTACACCCATAAATTGATAATTATCACACCCATAAATTGATATTGCCTCTGATAACTTCGTATAATGTATCGTATACGAACGGTATCGCACCGACAC,-0.379 ± 0.29,-0.264 ± 0.53

# — the supplement of paper PMC10201428
